# Assay results reported in patent US20230183318A1.
# Molecular target: PD-L1
# Assay: -; literature value (Cheng et al., 2013)
substance,measurement,value
PD-1 WT,Kd,8.2 µM
